According to the supplement of paper PMC9112550, “Optimization of the antimicrobial peptide Bac7 by deep mutational scanning” (BMC Biology, 2022):

System: Escherichia coli TOP10
Assay: shrunken log2 fold change of peptide-encoding DNA abundance (4.5 h post-induction vs induction); higher = less antimicrobial activity (less host growth inhibition)
Details: time post-induction: 4.5 h; library: site-saturation at positions 5, 18, 19, 20
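Also: peptides expressed intracellularly from a pBAD plasmid library in pooled LB shake-flask culture, induced with 0.3% L-arabinose, DNA abundance read by NGS, three biological replicates, DESeq2 with apeglm shrinkage.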

| Sequence | shrunken log2 fold change |
| --- | --- |
| RRIRIRPPRLPRPRPRPIYNPRP | -1.18 |
| RRIRIRPPRLPRPRPRPIYWPRP | -0.105 |
| RRIRIRPPRLPRPRPRPKACPRP | 0.0544 |
| RRIRIRPPRLPRPRPRPKCAPRP | 0.0106 |
| RRIRIRPPRLPRPRPRPKDWPRP | 0.299 |
| RRIRIRPPRLPRPRPRPKDYPRP | -0.603 |
| RRIRIRPPRLPRPRPRPKECPRP | 0.00902 |
| RRIRIRPPRLPRPRPRPKEQPRP | 0.0307 |
| RRIRIRPPRLPRPRPRPKFEPRP | -0.361 |
| RRIRIRPPRLPRPRPRPKGAPRP | 0.36 |
| RRIRIRPPRLPRPRPRPKHHPRP | -0.366 |
| RRIRIRPPRLPRPRPRPKIPPRP | -0.212 |
| RRIRIRPPRLPRPRPRPKKLPRP | -0.219 |
| RRIRIRPPRLPRPRPRPKMDPRP | 0.0209 |
| RRIRIRPPRLPRPRPRPKMHPRP | -0.299 |
| RRIRIRPPRLPRPRPRPKMKPRP | -0.457 |
| RRIRIRPPRLPRPRPRPKMMPRP | -0.596 |
| RRIRIRPPRLPRPRPRPKNAPRP | -0.107 |
| RRIRIRPPRLPRPRPRPKNDPRP | -0.867 |
| RRIRIRPPRLPRPRPRPKPSPRP | 0.128 |
| RRIRIRPPRLPRPRPRPKQQPRP | 0.0512 |
| RRIRIRPPRLPRPRPRPKSGPRP | -0.128 |
| RRIRIRPPRLPRPRPRPLCWPRP | -0.0614 |
| RRIRIRPPRLPRPRPRPLDTPRP | -0.142 |
| RRIRIRPPRLPRPRPRPLGYPRP | -0.303 |

| Sequence | shrunken log2 fold change |
| --- | --- |
| RRIRIRPPRLPRPRPRPLHMPRP | -0.571 |
| RRIRIRPPRLPRPRPRPLHTPRP | -0.456 |
| RRIRIRPPRLPRPRPRPLIEPRP | -0.475 |
| RRIRIRPPRLPRPRPRPLIKPRP | -0.756 |
| RRIRIRPPRLPRPRPRPLIPPRP | -0.692 |
| RRIRIRPPRLPRPRPRPLQDPRP | -0.31 |
| RRIRIRPPRLPRPRPRPLRMPRP | -0.04 |
| RRIRIRPPRLPRPRPRPLTEPRP | -0.044 |
| RRIRIRPPRLPRPRPRPLTRPRP | -0.265 |
| RRIRIRPPRLPRPRPRPLYVPRP | -1.06 |
| RRIRIRPPRLPRPRPRPMATPRP | -0.0167 |
| RRIRIRPPRLPRPRPRPMAVPRP | 0.142 |
| RRIRIRPPRLPRPRPRPMCCPRP | -0.212 |
| RRIRIRPPRLPRPRPRPMDCPRP | -0.115 |
| RRIRIRPPRLPRPRPRPMDEPRP | 0.00773 |
| RRIRIRPPRLPRPRPRPMDFPRP | 0.00128 |
| RRIRIRPPRLPRPRPRPMDHPRP | -0.0898 |
| RRIRIRPPRLPRPRPRPMFCPRP | -0.345 |
| RRIRIRPPRLPRPRPRPMFTPRP | -0.212 |
| RRIRIRPPRLPRPRPRPMHFPRP | -0.487 |
| RRIRIRPPRLPRPRPRPMKMPRP | -0.127 |
| RRIRIRPPRLPRPRPRPMKRPRP | 0.0451 |
| RRIRIRPPRLPRPRPRPMLAPRP | 0.0524 |
| RRIRIRPPRLPRPRPRPMLEPRP | 0.0741 |
| RRIRIRPPRLPRPRPRPMLPPRP | -0.0228 |

| Sequence | shrunken log2 fold change |
| --- | --- |
| RRIRIRPPRLPRPRPRPMNTPRP | -0.207 |
| RRIRIRPPRLPRPRPRPMNWPRP | -0.135 |
| RRIRIRPPRLPRPRPRPMPKPRP | -0.0638 |
| RRIRIRPPRLPRPRPRPMQPPRP | -0.0593 |
| RRIRIRPPRLPRPRPRPMQVPRP | 0.00763 |
| RRIRIRPPRLPRPRPRPMRVPRP | 0.109 |
| RRIRIRPPRLPRPRPRPMSGPRP | 0.174 |
| RRIRIRPPRLPRPRPRPMSQPRP | -0.119 |
| RRIRIRPPRLPRPRPRPMTTPRP | 0.0113 |
| RRIRIRPPRLPRPRPRPMVPPRP | 0.0231 |
| RRIRIRPPRLPRPRPRPMVQPRP | -0.0334 |
| RRIRIRPPRLPRPRPRPMVRPRP | -0.0105 |
| RRIRIRPPRLPRPRPRPMVSPRP | -0.044 |
| RRIRIRPPRLPRPRPRPMYWPRP | -0.291 |
| RRIRIRPPRLPRPRPRPNDLPRP | -0.16 |
| RRIRIRPPRLPRPRPRPNGFPRP | -0.114 |
| RRIRIRPPRLPRPRPRPNIPPRP | -0.818 |
| RRIRIRPPRLPRPRPRPNKNPRP | -0.701 |
| RRIRIRPPRLPRPRPRPNMHPRP | -0.805 |
| RRIRIRPPRLPRPRPRPNMLPRP | -1.18 |
| RRIRIRPPRLPRPRPRPNNNPRP | -0.982 |
| RRIRIRPPRLPRPRPRPNPFPRP | -0.502 |
| RRIRIRPPRLPRPRPRPNPLPRP | -0.0976 |
| RRIRIRPPRLPRPRPRPNRCPRP | -0.154 |
| RRIRIRPPRLPRPRPRPNRSPRP | 0.00656 |
